From publication PMC4944982

Legend:
[1] = target: human FGFR1 (transcript variant 2), overexpressed on HEK293T cells (human) (UniProt P11362); experiment: bioluminescent (NanoLuc) competition binding on living cells; adherent HEK293T cells transiently overexpressing human FGFR1; constant FGF2-Luc as tracer and various concentrations of wild-type or mutant FGF2 in serum-free DMEM plus 1% BSA and 5 μg/ml heparin, 20°C, 2–3 h
[2] = target: endogenous FGF receptor of untransfected HEK293T cells (human (endogenous in HEK293T)) (UniProt P11362); experiment: bioluminescent (NanoLuc) competition binding on living cells; untransfected HEK293T cells in suspension in a 96-well filtration plate; constant FGF2-Luc as tracer and various concentrations of wild-type or mutant FGF2 in serum-free DMEM plus 1% BSA and 5 μg/ml heparin, 20°C, 2–3 h
[3] = target: endogenous FGF receptor of untransfected HEK293T cells (human (endogenous in HEK293T)) (UniProt P11362)
[4] = target: endogenous FGF receptor of untransfected HEK293T cells (human (endogenous in HEK293T)) (UniProt P11362); experiment: bioluminescent (NanoLuc) saturation binding on living cells; untransfected HEK293T cells in suspension in a 96-well filtration plate; various concentrations of FGF2-Luc in serum-free DMEM plus 1% BSA and 5 μg/ml heparin, 20°C, 2–3 h; nonspecific binding with 250 nM 6×His-FGF2; one-site model
[5] = target: human FGFR1 (transcript variant 2), overexpressed on HEK293T cells (human) (UniProt P11362); experiment: bioluminescent (NanoLuc) saturation binding on living cells; adherent HEK293T cells transiently overexpressing human FGFR1 in 96-well plates; various concentrations of FGF2-Luc in serum-free DMEM plus 1% BSA and 5 μg/ml heparin, 20°C, 2–3 h; nonspecific binding with 250 nM 6×His-FGF2; one-site model

Substance	IC50 [1] [nM]	IC50 [2] [nM]	EC50 of activation of a serum response element (SRE)-controlled NanoLuc reporter in HEK293T cells [3] [nM]	Kd [4] [nM]	Kd [5] [nM]
6×His-[Y111A]FGF2 (ligand)	5.88	10	0.794	–	–
NanoLuc-conjugated FGF2 (FGF2-Luc) (ligand)	–	–	–	0.025	0.161

Next, values leading:

IC50 [1] [nM]	IC50 [2] [nM]	EC50 of activation of a serum response element (SRE)-controlled NanoLuc reporter in HEK293T cells [3] [nM]	Kd [4] [nM]	Kd [5] [nM]	Substance
0.65	0.081	0.058	–	–	6×His-FGF2 (ligand)
–	–	0.1	–	–	6×His-[C95S]FGF2 (ligand)
3.45	5.4	0.309	–	–	6×His-[Y32A]FGF2 (ligand)
